Results from patent publication US20140363865A1, “SUPPLEMENTATION OF FATTY ACIDS FOR IMPROVING ALCOHOL PRODUCTIVITY” (BUTAMAX ADVANCED BIOFUELS LLC, priority 2010, published 2014).

Legend:
[1] = system: S. cerevisiae culture; conditions: cerulenin added to the culture; cited from earlier work
[2] = Lipase treatment of ground whole corn kernels prior to liquefaction, then mixing with oleyl alcohol (Example 24); type: biochemical
Procedure: Tap water (1377.6 g) was added into each of two jacketed 2-L resin kettles, then 711.9 g wet weight (625.8 g dry weight) of ground whole corn kernels (1.0 mm screen on hammer mill) was added to each kettle with stirring. Each mixture was heated to 55° C. with stirring at 300 rpm, and the pH adjusted to 5.8 with 2 N sulfuric acid. To each mixture was added 21.0 g of an aqueous solution containing 1.008 g of Spezyme®-FRED L (Genencor®, Palo Alto, Calif.). To one mixture was then added 10.5 mL of aqueous solution of Lipolase® 100L Solution (21 mg total soluble protein, 10 ppm lipase final concentration) and to the second mixture was added 1.05 mL of aqueous solution of Lipolase® 100L Solution (2.1 mg total soluble protein, 1.0 ppm lipase final concentration). Samples were withdrawn from each reaction mixture at 1 h, 2 h, 4 h and 6 h at 55° C., then the temperature of the mixture was increased to 85° C. with stirring at 600 rpm and pH 5.8, and a sample was taken when the mixture first reached 85° C. After 120 minutes at 85° C., a sample was taken and the mixtures were cooled to 50° C. and final samples of the resulting liquefied corn mash were transferred to 50-mL polypropylene centrifuge tubes; all samples were stored frozen at −80° C.
In two separate reactions, a 50 g sample of the 10 ppm lipase-treated liquefied corn mash or a 55 g sample of the 1.0 ppm lipase-treated liquefied corn mash prepared as described above was mixed with oleyl alcohol (OA) (38 g) at 30° C. for 20 h, then the liquefied mash and OA in each reaction mixture were separated by centrifugation and each phase analyzed for wt % lipid (derivatized as fatty acid methyl esters, FAME) and for wt % free fatty acid (FFA, derivatized as fatty acid methyl esters, FAME) according to the method described by Reference 1. The % FFA in the OA phase of the liquefied mash/OA mixture prepared using heat inactivation of 10 ppm lipase during liquefaction was 98% at 20 h, compared to only 62% FFA in the OA phase of the liquefied mash/OA mixture prepared using heat inactivation of 1.0 ppm lipase during liquefaction.

[3] = Lipase screening for treatment of ground whole corn kernels prior to liquefaction (Example 25); type: biochemical; conditions: 55° C., pH 5.8
Procedure: Seven reaction mixtures containing tap water (67.9 g) and ground whole corn kernels (35.1 g wet wt., ground with 1.0 mm screen using a hammer mill) at pH 5.8 were stirred at 55° C. in stoppered flasks. A 3-mL sample (t=0 h) was removed from each flask and the sample immediately frozen on dry ice, then ca. 0.5 mL of 10 mM sodium phosphate buffer (pH 7.0) containing 1 mg total soluble protein (10 ppm final concentration in reaction mixture) of one of the following lipases (Novozymes) were added to one of each flask: Lipolase® 100 L, Lipex® 100L, Lipoclean® 2000T, Lipozyme® CALB L, Novozyme® CALA L, and Palatase 20000L; no lipase was added to the seventh flask. The resulting mixtures were stirred at 55° C. in stoppered flasks, and 3-mL samples were withdrawn from each reaction mixture at 1 h, 2 h, 4 h and 6 h and immediately frozen in dry ice until analyzed for wt % lipid (derivatized as fatty acid methyl esters, FAME) and for wt % free fatty acid (FFA, derivatized as fatty acid methyl esters, FAME) according to the method described by Reference 1, and the percent free fatty acid content was calculated relative to the total combined concentrations of lipid and free fatty acid was determined for each sample.

[4] = Heat inactivation of lipase in lipase-treated liquefied corn mash mixed with oleyl alcohol (Example 22); type: biochemical
Procedure: Tap water (918.4 g) was added to a jacketed 2-L resin kettle, then 474.6 g wet weight (417.6 g dry weight) of ground whole corn kernels (1.0 mm screen on hammer mill) was added with stirring. The mixture was heated to 55° C. with stirring at 300 rpm, and the pH adjusted to 5.8 with 2 N sulfuric acid. To the mixture was added 14.0 g of an aqueous solution containing 0.672 g of Spezyme®-FRED L (Genencor®, Palo Alto, Calif.), and the temperature of the mixture increased to 85° C. with stirring at 600 rpm and pH 5.8. After 120 minutes at 85° C., the mixture was cooled to 50° C. and 45.0 mL aliquots of the resulting liquefied corn mash were transferred to 50-mL polypropylene centrifuge tubes and stored frozen at −80° C.
In a first reaction, 50 g of liquefied corn mash prepared as described above was mixed with 10 ppm Lipolase® 100 L (Novozymes) for 6 h at 55° C. and with no inactivation of lipase at 85° C. for 1 h, the mixture was cooled to 30° C. In a second reaction, 50 g of liquefied corn mash was mixed with 10 ppm Lipolase® for 6 h at 55° C., then heated to 85° C. for 1 h (lipase inactivation), then cooled to 30° C. In a third reaction, 50 g of liquefied corn mash without added lipase was mixed for 6 h at 55° C., and with no heating at 85° C. for 1 h, the mixture was cooled to 30° C., 38 g of oleyl alcohol was added, and the resulting mixture stirred for 73 h at 30° C. In a fourth reaction, 50 g of liquefied corn mash without added lipase was mixed for 6 h at 55° C., then heated to 85° C. for 1 h, then cooled to 30° C. Each of the four reaction mixtures was sampled at 6 h, then 38 g of oleyl alcohol added, and the resulting mixtures stirred at 30° C. and sampled at 25 h and 73 h. Samples (both liquefied mash and oleyl alcohol (OA)) were analyzed for wt % lipid (derivatized as fatty acid methyl esters, FAME) and for wt % free fatty acid (FFA, derivatized as fatty acid methyl esters, FAME) according to the method described by Reference 1.

[5] = 0 h (sample before lipase addition)

C/C=C/C/C=C/CCC(=O)[C@H]1O[C@H]1C(N)=O [Cerulenin, cerulenin]
growth of S. cerevisiae culture [1]: inhibition of the growth

B1: Lipolase ® 100 L: commercial lipase preparation available from Novozymes (protein, UniProt O59952 23-291, looked up)
Lipase: EVSQDLFNQFNLFAQYSAAAYCGKNNDAPAGTNITCTGNACPEVEKADATFLYSFEDSGVGDVTGFLALDNTNKLIVLSFRGSRSIENWIGNLNFDLKEINDICSGCRGHDGFTSSWRSVADTLRQKVEDAVREHPDYRVVFTGHSLGGALATVAGADLRGNGYDIDVFSYGAPRVGNRAFAEFLTVQTGGTLYRITHTNDIVPRLPPREFGYSHSSPEYWIKSGTLVPVTRNDIVKIEGIDATGGNNQPNIPDIPAHLWYFGLIGTCL
% FFA ([2]; 1.0 ppm lipase at 55° C., 1 h, pre-liquefaction): 54%
% FFA ([2]; 1.0 ppm lipase at 55° C., 2 h, pre-liquefaction): 51%
% FFA ([2]; 1.0 ppm lipase at 55° C., 4 h, pre-liquefaction): 58%
% FFA ([2]; 1.0 ppm lipase at 55° C., 6 h, pre-liquefaction): 57%
% FFA ([2]; 1.0 ppm lipase, 0 h, 85° C., liq. mash): 49%
% FFA ([2]; 1.0 ppm lipase, 2 h, 85° C., liq. mash): 50%
% FFA ([2]; 1.0 ppm lipase, mix with OA, 20 h, 30° C., OA): 62%
% FFA ([2]; 1.0 ppm lipase, mix with OA, 20 h, 30° C., liq. mash): 20%
% FFA ([2]; 10 ppm lipase at 55° C., 1 h, pre-liquefaction): 74%
% FFA ([2]; 10 ppm lipase at 55° C., 2 h, pre-liquefaction): 77%
% FFA ([2]; 10 ppm lipase at 55° C., 4 h, pre-liquefaction): 82%
% FFA ([2]; 10 ppm lipase at 55° C., 6 h, pre-liquefaction): 87%
% FFA ([2]; 10 ppm lipase, 0 h, 85° C., liq. mash): 86%
% FFA ([2]; 10 ppm lipase, 2 h, 85° C., liq. mash): 85%
% FFA ([2]; 10 ppm lipase, mix with OA, 20 h, 30° C., OA): 98%
% FFA ([2]; 10 ppm lipase, mix with OA, 20 h, 30° C., liq. mash): 48%
% FFA [3, 5]: 33%
% FFA ([3]; 1 h, 10 ppm lipase): 56%
% FFA ([3]; 2 h, 10 ppm lipase): 74%
% FFA ([3]; 4 h, 10 ppm lipase): 76%
% FFA ([3]; 6 h, 10 ppm lipase): 79%
% FFA ([4]; 10 ppm active lipase, no 85° C. heat treatment, 6 h, liq. mash): 89%
% FFA ([4]; 10 ppm active lipase, no 85° C. heat treatment, 25 h, OA): 40%
% FFA ([4]; 10 ppm active lipase, no 85° C. heat treatment, 25 h, liq. mash): 20%
% FFA ([4]; 10 ppm active lipase, no 85° C. heat treatment, 73 h, OA): 21%
% FFA ([4]; 10 ppm active lipase, no 85° C. heat treatment, 73 h, liq. mash): 18%
% FFA ([4]; 10 ppm inactive lipase, 85° C. heat treatment, 6 h, liq. mash): 89%
% FFA ([4]; 10 ppm inactive lipase, 85° C. heat treatment, 25 h, OA): 99%
% FFA ([4]; 10 ppm inactive lipase, 85° C. heat treatment, 25 h, liq. mash): 53%
% FFA ([4]; 10 ppm inactive lipase, 85° C. heat treatment, 73 h, OA): 95%
% FFA ([4]; 10 ppm inactive lipase, 85° C. heat treatment, 73 h, liq. mash): 62%

B2: Palatase ® 20000 L: commercial lipase preparation available from Novozymes (protein, UniProt P19515 95-363, looked up)
Lipase: SIDGGIRAATSQEINELTYYTTLSANSYCRTVIPGATWDCIHCDATEDLKIIKTWSTLIYDTNAMVARGDSEKTIYIVFRGSSSIRNWIADLTFVPVSYPPVSGTKVHKGFLDSYGEVQNELVATVLDQFKQYPSYKVAVTGHSLGGATALLCALDLYQREEGLSSSNLFLYTQGQPRVGDPAFANYVVSTGIPYRRTVNERDIVPHLPPAAFGFLHAGEEYWITDNSPETVQVCTSDLETSDCSNSIVPFTSVLDHLSYFGINTGLCT
% FFA [3, 5]: 37%
% FFA ([3]; 1 h, 10 ppm lipase): 49%
% FFA ([3]; 2 h, 10 ppm lipase): 59%
% FFA ([3]; 4 h, 10 ppm lipase): 62%
% FFA ([3]; 6 h, 10 ppm lipase): 66%
